The values that follow come from patent publication US20230141630.

Where two headings read alike, the source gives them in different places.

Series [1] relates to Group II Intron-RT (unspecified). The conditions noted are these: 1 h at 55 C, Induro buffer, 1 ug circRNA, 100 ng RT.
Series [2] deals with Induro RT (Group II Intron-RT). The conditions noted are these: 5'-phosphate primer; 50 C 30 min, 10 mM DTT; peak cDNA 7.2 kb.
In series [3] the test system is Induro RT (Group II Intron-RT). The conditions noted are these: [none]; 38 C 5 min then 60 C 30 min.

Consider “AAAATCCGTTGACCTTAAACGGTCGTGTGGGTTCAAGTCCCTCCACCCCCACGCCGGAAACGCAATAGCCGAAAAACAAAAAACAAAAAAACCCCCCTCTCCCTCCCCCCCTAACGTTACTGGCCGAAGCCGCTTGGAATAAGGCCGGTGTGCGTTTGTCTATATGTTATTTTCCACCATATTGCCGTCTTTTGGCAATGTGAGGGCCCGGAAACCTGGCCCTGTCTTCTTGACGAGCATTCCTAGGGGTCTTTCCCCTCTCGCCAAAGGAATGCAAGGTCTGTTGAATGTCGTAAAAAAACAAAAAACAAAACGGCTATTATGCGTTACCGGCGAGACGCTACGGACTT / TCCAGAGGAACTGCTTCCTTC [circRNA 0.4 kb with DNA primer]”, for which the activity in series [1] was determined as 4.5 µg cDNA.

Turning to “GGATTCTAAAACGGATTACCAGGGATTTCAGTCGATGTACACGTTCGTCACATCTCATCTACCTCCCGGTTTTAATGAATACGATTTTGTACCAGAGTCCTTTGATCGTGACAAAACAATTGCACTGATAATGAATTCCTCTGGATCTACTGGGTTACCTAAGGGTGTGGCCCTTCCGCATAGAACTGCCTGCGTCAGATTCTCGCATGCCAGAGATCCTATTTTTGGCAATCAAATCATTCCGGATACTGCGATTTTAAGTGTTGTTCCATTCCATCACGGTTTTGGAATGTTTACTACACTCGGATATTTGATATGTGGATTTCGAGTCGTCTTAATGTATAGATTTGAAGAAGAGCTGTTTTTACGATCCCTTCAGGATTACAAAATTCAAAGTGCGTTGCTAGTACCAACCCTATTTTCATTCTTCGCCAAAAGCACTCTGATTGACAAATACGATTTATCTAATTTACACGAAATTGCTTCTGGGGGCGCACCTCTTTCGAAAGAAGTCGGGGAAGCGGTTGCAAAACGCTTCCATCTTCCAGGGATACGACAAGGATATGGGCTCACTGAGACTACATCAGCTATTCTGATTACACCCGAGGGGGATGATAAACCGGGCGCGGTCGGTAAAGTTGTTCCATTTTTTGAAGCGAAGGTTGTGGATCTGGATACCGGGAAAACGCTGGGCGTTAATCAGAGAGGCGAATTATGTGTCAGAGGACCTATGATTATGTCCGGTTATGTAAACAATCCGGAAGCGACCAACGCCTTGATTGACAAGGATGGATGGCTACATTCTGGAGACATAGCTTACTGGGACGAAGACGAACACTTCTTCATAGTTGACCGCTTGAAGTCTTTAATTAAATACAAAGGATATCAGGTGGCCCCCGCTGAATTGGAATCGATATTGTTACAACACCCCAACATCTTCGACGCGGGCGTGGCAGGTCTTCCCGACGATGACGCCGGTGAACTTCCCGCCGCCGTTGTTGTTTTGGAGCACGGAAAGACGATGACGGAAAAAGAGATCGTGGATTACGTCGCCAGTCAAGTAACAACCGCGAAAAAGTTGCGCGGAGGAGTTGTGTTTGTGGACGAAGTACCGAAAGGTCTTACCGGAAAACTCGACGCAAGAAAAATCAGAGAGATCCTCATAAAGGCCAAGAAGGGCGGAAAGTCCAAACTCGAGTAAGGTTAACCTGCAGGGAAAAAACAAAAAACAAAACGGCTATTATGCGTTACCGGCGAGACGCTACGGACTT / ACTTGCCTGTCGCTCTATCTTCTTTGTTTTTTCCCTGCAGGTTAACCTTACTC [circRNA 1.8 kb with RT primer]”, in series [2], the activity (copies per cDNA) was determined as 4.

Sequence “UGAGGUAGUAGGUUGUAUAGUUUACUGACCAGGACGACGACA / TGTCGTCGTCCTGGTCAGTA [42 nt circularized small RNA with RT primer]” gave an activity (copies per cDNA) in series [3] of over 100.
